Test results from patent US20190016826A1 (Genentech, published 2019).

Assays:
[1] = target: T1, Protease domain of human HtrA1 (HuHtrA1_PD), residues D161-K379 (human, UniProt F1N152 168-386 (bovine entry)); test: SPR (BIAcore T100), single-cycle kinetics, biotinylated HuHtrA1_PD captured on streptavidin, Fab in solution
T1 construct: Expressed in E. coli; not shown: thrombin cleavage site between tag and D161
Description: (§1) Briefly, series S sensor chip CM5 was activated with EDC and NHS reagents according to the supplier's instructions, and streptavidin (Pierce) was coupled to achieve approximately 2000 response units (RU), followed by blocking unreacted groups with 1M ethanolamine.
(§2) The sensorgrams were recorded and evaluated by BIAcore™ T100 Evaluation Software (version 2.0) after subtraction of reference cell signal. Association rates (kₒₙ) and dissociation rates (koff) were calculated using a simple one-to-one Langmuir binding model. The equilibrium dissociation constant (KD) was calculated as the ratio […] (see Table 1 below).

[2] = target: T1, Protease domain of human HtrA1 …; test: ELISA on plate-coated wild-type HuHtrA1_PD, row WT (Example 7); column head on the sheet reads YW505.94 Fab, legend paragraph 70 says IgG94
Description: The mutants were expressed in E. coli and the trimers purified by size exclusion chromatography as described in Example 2. Binding was determined using an ELISA assay, which was conducted using a MAXISORP™ microtiter plate coated with HuHtrA1_PD mutants at 2 μg/ml in PBS for 1 h, followed by blocking with PBST buffer (0.5% BSA and 0.05% Tween 20 in PBS) for 1 h at room temperature. […] The plates were washed with PBT buffer (0.05% Tween 20 in PBS), and HRP-conjugated goat anti-human IgG (H+L) (Invitrogen) was added (1:5000 in PBST buffer) and incubated for 1 h. The plates were washed with PBT buffer and developed by adding tetramethylbenzidine substrate (Kirkegaard and Perry Laboratories, Gaithersburg, Md.). The absorbance at 450 nm was plotted as a function of antibody concentration in solution to determine EC₅₀ values.
Target sequence in this assay (F1N152 other isoform, or with tags, fused parts or gaps): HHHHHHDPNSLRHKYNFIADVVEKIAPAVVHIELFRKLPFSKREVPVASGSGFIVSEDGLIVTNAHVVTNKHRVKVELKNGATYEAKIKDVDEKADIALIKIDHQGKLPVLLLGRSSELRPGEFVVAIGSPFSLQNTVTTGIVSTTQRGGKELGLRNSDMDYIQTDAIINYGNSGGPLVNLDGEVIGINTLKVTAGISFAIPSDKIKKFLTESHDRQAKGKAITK

[3] = target: Protease domain of murine HtrA1 (MuHtrA1_PD) (G156-S367) (murine, UniProt Q9R118 156-367); test: SPR (BIAcore T100), single-cycle kinetics, biotinylated MuHtrA1_PD captured on streptavidin, Fab in solution
Description: as §1, §2

[4] = target: T2, Full length murine HtrA1 (MuHtrA1) (P24-P480), N-terminal His6 tag (murine, UniProt Q9R118 24-480); test: SPR (BIAcore T100), single-cycle kinetics, biotinylated murine HtrA1 captured on streptavidin, Fab in solution
T2 construct: Expressed in insect cells
Text: To determine the binding affinity of HtrA1 antibodies by single cycle kinetics, Surface Plasmon Resonance (SRP) measurement with a BIAcore™ T100 instrument was used. Briefly, a series S sensor chip CM5 was activated with EDC and NHS reagents according to the supplier's instructions, and streptavidin (Pierce) was coupled to achieve approximately 2000 response units (RU), followed by blocking un-reacted groups with 1M ethanolamine.
For kinetics measurements, biotinylated human or murine HtrA1 was first injected at 10 ul/min flow rate to capture approximately 100 RU at 3 different flow cells (FC), except for FC1 (reference), and then 5-fold serial dilutions of anti-HtrA1 Fab in HBS-P buffer (0.01M HEPES pH 7.4, 0.15M NaCl, 0.005% surfactant P20) from low (0.48 nM) to high (300 nM) [5 points] were injected (flow rate: 30 μl/min) one after the other in the same cycle with no regeneration between injections. The sensorgram was recorded and subject to reference and buffer subtraction before evaluation by BIAcore™ T100 Evaluation Software (version 2.0). Association rates (km) and dissociation rates (koff) were calculated using a simple one-to-one Langmuir binding model. The equilibrium dissociation constant (Kd) was calculated as the ratio koff/kₒₙ.

Sequence of Protease domain of murine HtrA1 (MuHtrA1_PD) (G156-S367) (Q9R118 other isoform, or with tags, fused parts or gaps): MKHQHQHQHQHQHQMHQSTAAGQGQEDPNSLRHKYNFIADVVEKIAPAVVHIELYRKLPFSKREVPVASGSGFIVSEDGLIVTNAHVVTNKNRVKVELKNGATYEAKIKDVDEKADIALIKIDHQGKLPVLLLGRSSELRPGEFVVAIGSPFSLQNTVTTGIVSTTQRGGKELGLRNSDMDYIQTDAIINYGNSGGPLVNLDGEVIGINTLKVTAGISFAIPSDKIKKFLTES
T2 sequence (Q9R118 other isoform, or with tags, fused parts or gaps): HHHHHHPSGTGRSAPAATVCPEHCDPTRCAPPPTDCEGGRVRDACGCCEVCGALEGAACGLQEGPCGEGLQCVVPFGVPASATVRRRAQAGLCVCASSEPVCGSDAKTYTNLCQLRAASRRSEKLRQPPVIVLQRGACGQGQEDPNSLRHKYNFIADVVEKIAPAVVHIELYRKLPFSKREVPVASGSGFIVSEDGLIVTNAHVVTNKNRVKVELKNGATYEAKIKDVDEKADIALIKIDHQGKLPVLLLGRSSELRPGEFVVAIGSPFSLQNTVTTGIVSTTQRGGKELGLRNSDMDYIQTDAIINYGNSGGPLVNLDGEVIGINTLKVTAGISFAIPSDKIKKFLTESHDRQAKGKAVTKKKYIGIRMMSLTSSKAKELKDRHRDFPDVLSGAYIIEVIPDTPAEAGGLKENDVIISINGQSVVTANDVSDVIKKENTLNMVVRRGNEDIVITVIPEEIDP

B1: Fab94 (anti-HtrA1 antibody YW505.94, Fab format) (Fab, V domains shown)
VH: EVQLVESGGGLVQPGGSLRLSCAASGFNISGYYIHWVRQAPGKGLEWVGWIDPYGGDTNYADSVKGRFTISADTSKNTAYLQMNSLRAEDTAVYYCARGTFLTSWGHYFDYWGQGT
VL: DIQMTQSPSSLSASVGDRVTITCRASQDVSTAVAWYQQKPGKAPKLLIYSASFLYSGVPSRFSGSGSGTDFTLTISSLQPEDFATYYCQQSYTTPPTFGQGTKVEIKR
In the case of B1, the Kd [1] is reported as 31.1 nM, the koff [1] is reported as 0.0109 s⁻¹ and the kon [1] is reported as 350000 M⁻¹ s⁻¹. For the same binder, the EC50 [2] was 5.6 nM, the “Relative to WT EC50 Fold Decrease” value [2] was 1 fold and the Kd [3] was 28.9 nM. For the same binder, the koff [3] was 0.0129 s⁻¹, the kon [3] was 450000 M⁻¹ s⁻¹ and the Kd [4] was 28.9 nM. For the same binder, the koff [4] was 0.0129 s⁻¹ and the kon [4] was 447000 M⁻¹ s⁻¹.
